Measured values published in patent publication US20220259289A1 (Janssen / Centocor, published 2022).
Numbering of substitutions follows the chain as printed. Each block holds one binder with its values, some of them ahead of it.

Key:
Assay in all cases: ELISA, bacterial lysate on plate-bound antigen, luminescence
[1] = biological target: unrelated Fc-fused recombinant protein (negative control)
[2] = biological target: T1, recombinant biotinylated human CD137 protein (Fc-fusion protein, R&D Systems 838-4B) (human, UniProt Q07011 24-186, biotinylated (site not stated))
T1 construct: Bought Fc fusion; The ELISA used the same antigen as the panning; also called CD137-Fc; biotinylated CD137; not shown: Fc part of the bought fusion protein
Method: (§1) Streptavidin-coated Maxisorp plates (Nunc catalog 436110) were blocked for 1 h in Starting Block T20 (Pierce) and then coated with biotinylated CD137 (using same antigen as in panning) or negative controls (an unrelated Fc-fused recombinant protein and human serum albumin) for 1 h. Plates were rinsed with TBST and diluted lysate was applied to plates for 1 h. Following additional rinses, wells were treated with HRP-conjugated anti-Centyrin antibody (PAB25) for 1 h and then assayed with POD (Roche catalog 11582950001).

human serum albumin = biological target: T2, human serum albumin (human, UniProt P02768 25-609)
T2 construct: Negative control antigen of the screening ELISA; also called HSA
T2 sequence (P02768 25-609 limits assumed): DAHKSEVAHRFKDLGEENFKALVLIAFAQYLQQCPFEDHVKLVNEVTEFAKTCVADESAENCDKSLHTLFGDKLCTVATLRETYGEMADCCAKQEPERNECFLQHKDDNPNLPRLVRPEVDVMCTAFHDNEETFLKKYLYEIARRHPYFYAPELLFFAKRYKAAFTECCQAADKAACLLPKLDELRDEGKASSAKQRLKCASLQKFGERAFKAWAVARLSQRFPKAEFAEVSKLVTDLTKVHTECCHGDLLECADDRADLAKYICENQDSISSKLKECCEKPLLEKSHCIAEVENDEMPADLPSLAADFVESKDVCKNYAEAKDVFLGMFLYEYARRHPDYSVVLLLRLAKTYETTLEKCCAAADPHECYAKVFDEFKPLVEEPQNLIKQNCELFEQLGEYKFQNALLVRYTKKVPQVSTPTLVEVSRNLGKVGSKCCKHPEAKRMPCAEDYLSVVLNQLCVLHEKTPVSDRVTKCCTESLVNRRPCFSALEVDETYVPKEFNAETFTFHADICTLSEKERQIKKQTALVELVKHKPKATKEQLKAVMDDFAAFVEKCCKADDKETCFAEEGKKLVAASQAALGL
Method: as §1

ELISA Fc Control (RLU) [1]: 400 RLU
ELISA CD137-Fc (RLU) [2]: 499000 RLU
ELISA HSA (RLU) (human serum albumin): 400 RLU
B1: ISOP120ER5P1B4 (designed binder, not shown: small tags and cut ends)
chain: LPAPKNLVVSRVTEDSARLSWTAPDAAFDSFSILYGEPPALGEAIVLTVPGSERSYDLTGLKPGTEYWVTIYGVKGGVFSHPLSAIFTT
notes: FN3 domain (Centyrin); tested as E. coli lysate

ELISA Fc Control (RLU) [1]: 320 RLU
ELISA CD137-Fc (RLU) [2]: 347000 RLU
ELISA HSA (RLU) (human serum albumin): 480 RLU
B2: ISOP120HR5P1G4 (designed binder, not shown: small tags and cut ends)
chain: LPAPKNLVVSRVTEDSARLSWTAPDAAFDSFEIYYREYWYSGEAIVLTVPGSERSYDLTGLKPGTEYLVTIYGVKGGWYSDPLSAIFTT
notes: as for B1

ELISA Fc Control (RLU) [1]: 160 RLU
ELISA CD137-Fc (RLU) [2]: 1.35e+06 RLU
ELISA HSA (RLU) (human serum albumin): 400 RLU
B3: ISOP120ER5P1B6 (designed binder, not shown: small tags and cut ends)
chain: B2 chain with E32D, R36G, Y38H, Y40K, S41L, P50Q, W78Q, Y79W, D81F
notes: as for B1

ELISA Fc Control (RLU) [1]: 480 RLU
ELISA CD137-Fc (RLU) [2]: 1.23e+06 RLU
ELISA HSA (RLU) (human serum albumin): 640 RLU
B4: ISOP120FR5P1F1 (designed binder, not shown: small tags and cut ends)
chain: B2 chain with E32T, R36F, Y38N, W39E, Y40N, S41G, G77C, W78D, Y79W
notes: as for B1

ELISA Fc Control (RLU) [1]: 320 RLU
ELISA CD137-Fc (RLU) [2]: 495000 RLU
ELISA HSA (RLU) (human serum albumin): 400 RLU
B5: ISOP120ER5P1C6 (designed binder, not shown: small tags and cut ends)
chain: B1 chain with L34Y, P38W, P39H, W68V, V78T, F79Y, H81L, F87S
notes: as for B1

ELISA Fc Control (RLU) [1]: 560 RLU
ELISA CD137-Fc (RLU) [2]: 1.08e+06 RLU
ELISA HSA (RLU) (human serum albumin): 240 RLU
B6: ISOP120HR5P1A3 (designed binder, not shown: small tags and cut ends)
chain: B2 chain with R36A, Y38F, W39G, S41Y, L68T, D81T
notes: as for B1

ELISA Fc Control (RLU) [1]: 400 RLU
ELISA CD137-Fc (RLU) [2]: 1.9e+06 RLU
ELISA HSA (RLU) (human serum albumin): 320 RLU
B7: ISOP120ER5P1A8 (designed binder, not shown: small tags and cut ends)
chain: B2 chain with E32D, R36F, Y38H, W39P, Y40V, S41G, W78Y, Y79L, D81M
notes: as for B1

ELISA Fc Control (RLU) [1]: 320 RLU
ELISA CD137-Fc (RLU) [2]: 1.14e+06 RLU
ELISA HSA (RLU) (human serum albumin): 320 RLU
B8: ISOP120ER5P1A11 (designed binder, not shown: small tags and cut ends)
chain: B2 chain with R36K, Y38L, W39R, Y40A, S41E, W78S, Y79V, D81I
notes: as for B1

ELISA Fc Control (RLU) [1]: 320 RLU
ELISA CD137-Fc (RLU) [2]: 2.22e+06 RLU
ELISA HSA (RLU) (human serum albumin): 400 RLU
B9: ISOP120HR5P1H8 (designed binder, not shown: small tags and cut ends)
chain: B2 chain with E32D, R36Y, Y38L, W39R, Y40L, S41G, W78Y, D81G
notes: as for B1

ELISA Fc Control (RLU) [1]: 320 RLU
ELISA CD137-Fc (RLU) [2]: 1.19e+06 RLU
ELISA HSA (RLU) (human serum albumin): 320 RLU
B10: ISOP120HR5P1B4 (designed binder, not shown: small tags and cut ends)
chain: B2 chain with E32S, R36G, W39Y, Y40N, S41L, L68V, W78G, D81N
notes: as for B1

ELISA Fc Control (RLU) [1]: 400 RLU
ELISA CD137-Fc (RLU) [2]: 987000 RLU
ELISA HSA (RLU) (human serum albumin): 480 RLU
B11: ISOP120HR5P1A7 (designed binder, not shown: small tags and cut ends)
chain: B2 chain with R36A, Y38P, W39R, S41Y, L68T, W78Y, D81S
notes: as for B1

ELISA Fc Control (RLU) [1]: 400 RLU
ELISA CD137-Fc (RLU) [2]: 460000 RLU
ELISA HSA (RLU) (human serum albumin): 560 RLU
B12: ISOP120FR5P1H5 (designed binder, not shown: small tags and cut ends)
chain: B2 chain with F31L, E32Q, R36F, Y38W, W39V, Y40V, S41G, P63L, W78N, Y79F
notes: as for B1

ELISA Fc Control (RLU) [1]: 240 RLU
ELISA CD137-Fc (RLU) [2]: 389000 RLU
ELISA HSA (RLU) (human serum albumin): 400 RLU
B13: ISOP120FR5P1C2 (designed binder, not shown: small tags and cut ends)
chain: B2 chain with E32D, Y34N, R36F, Y38Q, W39P, Y40K, S41G, W78P, D81P
notes: as for B1

ELISA Fc Control (RLU) [1]: 480 RLU
ELISA CD137-Fc (RLU) [2]: 405000 RLU
ELISA HSA (RLU) (human serum albumin): 400 RLU
B14: ISOP120HR5P1D9 (designed binder, not shown: small tags and cut ends)
chain: B2 chain with E32D, Y38L, W39D, Y40F, S41Q, T70I, W78S, D81Y, P82T
notes: as for B1

ELISA Fc Control (RLU) [1]: 480 RLU
ELISA CD137-Fc (RLU) [2]: 630000 RLU
ELISA HSA (RLU) (human serum albumin): 320 RLU
B15: ISOP120HR5P1H4 (designed binder, not shown: small tags and cut ends)
chain: B2 chain with E32D, Y34L, R36L, Y38P, W39Y, Y40Q, S41E, W78Y, D81L
notes: as for B1

ELISA Fc Control (RLU) [1]: 400 RLU
ELISA CD137-Fc (RLU) [2]: 2.04e+06 RLU
ELISA HSA (RLU) (human serum albumin): 320 RLU
B16: ISOP120HR5P1G6 (designed binder, not shown: small tags and cut ends)
chain: B2 chain with R36F, Y38L, W39R, Y40L, S41G, W78L, Y79D, D81Q
notes: as for B1

ELISA Fc Control (RLU) [1]: 320 RLU
ELISA CD137-Fc (RLU) [2]: 1.1e+06 RLU
ELISA HSA (RLU) (human serum albumin): 320 RLU
B17: ISOP120HR5P1D7 (designed binder, not shown: small tags and cut ends)
chain: B2 chain with E32D, R36L, Y38S, Y40T, S41R, W78S, D81R
notes: as for B1

ELISA Fc Control (RLU) [1]: 400 RLU
ELISA CD137-Fc (RLU) [2]: 1.18e+06 RLU
ELISA HSA (RLU) (human serum albumin): 400 RLU
B18: ISOP120HR5P1F9 (designed binder, not shown: small tags and cut ends)
chain: B2 chain with E32Y, Y38H, Y40T, S41I, W78A, D81N
notes: as for B1

ELISA Fc Control (RLU) [1]: 320 RLU
ELISA CD137-Fc (RLU) [2]: 589000 RLU
ELISA HSA (RLU) (human serum albumin): 480 RLU
B19: ISOP120ER5P1H6 (designed binder, not shown: small tags and cut ends)
chain: B1 chain with L34Y, P38W, P39H, W68V, V78T, F79Y, H81L
notes: as for B1
